For 34 sequences, protease stability score results are on record in the NTF2 design screens of Basanta et al. (2020).

A short description of this series: protease stability score; higher = more stable; yeast display proteolysis, trypsin and chymotrypsin.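 Also: relative to predicted unfolded state with 0 unfolded-like and 1 meaning tenfold more protease.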
“SEEDEVTEKLVRLMIHAHHTGDEDLLKTLADPNVRLTIDYNGVKLTSHGREEFVRLLREWKRQIRIEDRKTTESHVYGNFAINNHVELGEFDGRRDRFEVRLHFVVFNGRVKEEKIKFD” returned a protease stability score of 1.45.

For “SEEDEVYEEALKITERLERTGNEEDLRTYADPHAKLRFIVDGKTIEIHGREDFVHEVVRYWKRFKNLTVRIERVEFQGDKLHLIGRLHIDGREVIIHMLSVKFNGRWFVENLHIEFV”, the protease stability score was found to be 1.41.

For “SEEDHDRELWISLLKKEAETGDERQVRENLDPNVQLDVGDKTFHGREIVLDHIHEEWKRLGLDRIKLFVDSIRIQGDKVRLDGSLDVNGKEIRVNIFLRKINGRWHIEFIHID”, the protease stability score stood at 0.666.

“SEEDHEHKVLTELSRKDWRTGNEHDLERLMDPNVRVEVDGREHHGWESAHELAKHFHRFFKNATLEIRHEEIQGEYLHIEMIIRVGDKVFDVHFIARKINGRWVLTEFSVH” returned a protease stability score of 0.261.

As for “SEEDHELRIASEIMIKTTRTGDERLIKELFDPNTQIDFDGQELHGWKFVRRLDEEMRMHRSETKSYERYGDKIVIDIEVDVEFNGVRTRIRVTIIARKVNGRWLNEVMIIH”, the protease stability score turned out to be 1.14.

“SEEDHFMKHLVDHWAKIEQTGDEHALHELLDPDARVSIKIGDKEHIVHGREYLIELWRQLGFKVIKIHDHTVFNGVVKLHGHWHFDGREVHVEQDLIIINGRVKTVLMRVK” registered a protease stability score of 1.72.

Turning to “SEEDHHADEFRRIMYEIFETGDEKKFEDLFDPNVRWEQGDKHTHGMETATRDMLDLERRLGVDHIKYKDIRFELVDGRMIVYIIGTIYINGRPRHLHIEIIVSKINGRWFVENVRMKVE”, the protease stability score came to 2.14.

Turning to “SEEDHHTERIVEEFIEAERTGDEDHLLELIDPHVRVDVNGVELHGREELYKFWRDWLTKFKNARIEIRHVNNQGDKSTVLVLRRINGVDLETHVKWVFVNGKLKSITIRLN”, the protease stability score came out at 1.49.

“SEEDHIMEELARIFWKLMTTGDFDTLEHLMDPHTRLEVNGRIFVGREASEELWRFYKNVRTEIEDVKAQGDKNHIKGHQKFNGREKTVHIHLTIVDGRLKSMSIKEH” had a protease stability score of 2.23.

For the sequence “SEEDHLVDLMLKFLIESLKTGDEKTLRKLVDPNDKVVFNGRELHGRRALEYWLERFDHAHRFHIEDFTVQGDYMIVRVKLDGHVDGVRMETTIHLILVKYDGRWFVKMTIFN”, the protease stability score was determined as 1.26.

In turn, “SEEDHRAKHIFHLFLHWFLTGDWEIFEHYADPRMRTLVNGKNFHGWEETVKFLDHIFKELRVHHIHVDHLEVQGDKYHFEVRVDREYNGRREITIMYIHFLIFNGKVKSILIIIH” gave a protease stability score of 1.08.

“SEEDKATEKFLRELSEWHRTGDEEHFVRNLDPHVRVDIDGVELHGREEVERHLRKRWEKLGVDRFDSELRFKHIHVQGDKIEIHIRIILDINGVHRNVDVEIIALKVNGRWLIQSYHIR” had a protease stability score of 2.24.

For “SEEDKEFEDLIKFWIHLLETGDFDTLRDLADPHVRVTIDGRDLHGREILLTFWEKVKNIKLDLKSIRVINGVVIMHGDTNFDGKRSHVELHIKKINGRWYITEFRIE”, the protease stability score came to 2.25.

Take “SEEDKELEEFFRMYIHAARTGDWHTLTRLLDPNVLLMVNGRETHGMDKVKELLKRLGVDYINIEHVEVHRMDFQGDKLRMDTTEDGFVNGVRTHRSVHHILVKVDGRWYIESVHIK”: the protease stability score came to 2.02.

Take “SEEDKEREEWLHLLKHSLETGDEQALSRMADPHVRLVVGDKELHGREDYERHWREFLERFPNVTTEVRLRRVEIYGDKIRIDTELRIHVGDKHHSLRVDLIMVKVDGRWFMKEIRIK”: the protease stability score came out at 1.21.

Sequence “SEEDKESEEAFKIAKELLETGDEDLHKHLFDPNARLVVGDKHHHGRELLVKFWSDFGIDHIEIHDIKLVNGRLDTDTTVRFNGRTLKMRIIIIKVNGKWEIKSMTVH” yielded a protease stability score of 0.667.

The sequence “SEEDKETKIALEISEKILETGDWEELSKNLDPDARFTFENRTHVGREEVSELLLKLIKEMGVNHVNIEDNDLQGDKIILIVEVRVGDKRVNLEIIAVKVNGRWRIHSIHERHE” came in with a protease stability score of 0.884.

In the case of “SEEDKEVKFFMERLNHLLLTGDEELIMEMLDPNARMTINGVDTHGRETLSKLWTDKLRHLRLKQIHIHDWRSINGRADNKGHERGFVGDKEDNWESELLFVFVNGRLKSISVHLR”, the protease stability score was 1.21.

“SEEDKHASKLADLVVEMWMTGDEEKLRHLADPDVKLHIEFNGVNRNHHGRDVMIEVMQRIREEIRIHDIKIHNWHTINGRWHIDSIVDGKFNGRRHETRTEVILEVIDGRIKVISFIFQ” yielded a protease stability score of 1.07.

“SEEDKHHETLARLIIEALTTGDEESLMHLMDPNARIQIGDKDNHGWRSLHIHHRELGIDHKEIRVREVRFVNGKIHIDSQVHFHFNGVTFDVRTHIILVVINGKLTKMWVIIG”: the protease stability score was found to be 0.363.

As for “SEEDKHLLHLMHLFLHWFDTGDEEQFWHYADPHVRMSVNGVHLHGRETVMRQISRTLKEWRVDDRRIHDSHTVNGVVHQDGRVDGEFNGKRDTREYYLIIVIFNGRIHSVEIHIK”, the protease stability score is 1.46.

“SEEDKHLRKMAQDILEWLFTGNWKDFFDNLDPNYRVEWNGKERIGRDLTRRMLETIRREMRLHDIKIHHFTAIDGVIHIDGSEYIHVDGVTTEVKTHIHIVIFNGRIKRIEFHDH” returned a protease stability score of 1.48.

Take “SEEDKHTEKLVRELWHAFETGDEDFILDMADPDVKFDFNGRKNVGREEFSRIWEDIFRRFKNIQLELTSITFQGHKVHTKGRTRINGKHHELIVHVVIVNGRLESLTIIIN”: the protease stability score amounted to 1.49.

On to “SEEDKIALEILEMTKKLWDTGDEELMVDLVDPHVKVDWDGRERHGREAVEFFFRSIIEKVKNLTIRLTDFRVINGRIEIDSTLKFNGKTLEVRIISTKIDGQWYIESISFR”, for which the protease stability score came to 1.38.

Take “SEEDKIVHEMMERLLKNWQTGNWEEIEKLFDPNAKLLVDGVELHGREEMSRHWEEKLNQIDHLRIRIRDYRYFDGRLRVEGEEIHYVNGKDITREVEIRLQVINGVVESIEFHRR”: the protease stability score was 1.42.

The sequence “SEEDKKVEEAIKYLYSFLKTGDEHEVEDMIDPHVRIDVNGKNVHGWEEAFRWTVEHMKKLGVERFEVEIKDVHKQGNYVRVLGHSRFNGKEYEIEIILIKVNGRWIIKSHRIH” came in with a protease stability score of 1.64.

Sequence “SEEDKLAREIFEETIRILLTGDEEKLEELLDPRVRVHIHIGDKRIDLHGREEMSKWLHEIRIEHFHIDDLKVQGDKLHADTHEVVRIGDKRIETRTEWELVVVNGRLKELHIRVK” gave a protease stability score of 1.74.

Sequence “SEEDKLIKDAFTEIHTWIKTGNEEYLERLVDPHVKIIINGRELHGMEFLHEELKRFDHLHLRDHHLESFDIQGNKIVLEGTNDIEIKWNGVRIRTELEIHFFVEKVNGKWIIREFVIV” gave a protease stability score of 1.26.

With “SEEDKLMRDIERLVLEWLETGDEDALKKMLDPHVRVEFNGVERIGMDELARLLKHLRFDHIHIRNSRVINGVIHIDGHIDGTINGRRVRHDLEVRIIIVNGRFKEIILIDR”, the protease stability score was 1.21.

On to “SEEDKLSEELARRWIHLFETGDEETILHLADPHMKYILIINGRNEIHHGMKMMSEELKRIKGARFEIKRIEVQGDKVHLDVRIRIDGVEIDSEIDLKIVDGRLRELKVTIK”, for which the protease stability score was 2.07.

Consider “SEEDKMVEDWLREWIELHLTGDFEQWESLFDPNTRSRAHVGDKRFESHGREQVVEVRHEIKREMRITDIDDKHIRVFNGRADLIGFMRGDINGRHVRLEIHVILVIVNGKRKEEEVRIH”, for which the protease stability score came to 0.155.

“SEEDKSFEIMFKLFKEASDTGDEKTLSELFDPDTRIDIGDKHLHGREEAVRMWRELRIHDIRVKSFDIIGNKIHLDTHVNGLVNGRLHRTDSKIILLKVNGQWRIESYHVD” yielded a protease stability score of 1.77.

“SEEDKTALEMFERLIHAWLTGDEDEMRRMADPHVKIDKEFENHEVQFHGREDFVRWVIEVRDRIDHLEIRNHSIRTWNGVVHVHTTLFLNYDGKLFILRTEFRLFVIDGRLREERFMLH” showed a protease stability score of 0.282.

Sequence “SEEDKWAEIMARLMSYLNHTGDEENFDRLADPDVRMDINGREVHGRETFNRYLRHIRIRFHDLISRDSTEVNGVLIIHGESDITIEYDGVRLRDHPKSVFYVLKINGRWRIKSISFH” gave a protease stability score of 1.41.
